Laboratory results as given in the supplement of paper PMC6757056.
± gives the standard deviation of the averaged measurements.

B1: library; a variant is named by its letters at N, in order (parent)
chain: GCUGUCACCGGUGUAUUACCCUAGUGGUCGACCGGUCUGAUGAGUCUNNNNNNAGACGAAACAGC

How the values were obtained:
hypoxanthine [1] = variants of: B1; assay: FACS-Seq fitted mean relative fluorescence mCherry/BFP without ligand (log10 relative fluorescence); ligand: hypoxanthine (xanthine aptamer); higher = higher reporter protein expression; conditions: HEK293T, ligand present: no
In short: (§1)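 The ribozyme switch sat in an mCherry reporter, delivered by lentivirus into HEK293T libraries along with an EF1α-BFP marker. Enriched cells were incubated 48 h with or without ligand, sorted into 6 bins by mCherry/BFP, and bin genomic DNA was PCR-amplified, barcoded and MiSeq-sequenced. Fluorescence equals the fitted normal mean of the bin counts after normalization. Those log10(mCherry/BFP) means were scaled to five spiked-in control ribozymes.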

hypoxanthine [2] = variants of: B1; assay: normalized RNA/DNA level with ligand (relative to sTRSVctl = 100) (log10 (% of sTRSVctl)); ligand: hypoxanthine (xanthine aptamer); higher = less ribozyme self-cleavage, higher mRNA level; conditions: ligand concentration (+) RNA-Seq: 5 mM, HEK293T, reporter: mCherry (pCS4076), ligand present: yes
In short: (§2)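 Only sequences with at least 100 DNA reads were analyzed, from HEK293T cells transfected with 4 µg per 6-well well of ribozyme switch library plasmids 72 h before RNA extraction with EDTA. Any ligand was added 1 h before transfection. RNA level was defined as RNA over DNA reads, normalized to a spiked-in non-cleaving sequence or to the top sequences, then scaled and log-transformed. The top set was 25 sequences, and the scaling was ×100 followed by log10.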

hypoxanthine [3] = variants of: B1; assay: normalized RNA/DNA level without ligand (relative to sTRSVctl = 100) (log10 (% of sTRSVctl)); ligand: hypoxanthine (xanthine aptamer); higher = less ribozyme self-cleavage, higher mRNA level; conditions: HEK293T, reporter: mCherry (pCS4076), ligand present: no
In short: as §2

hypoxanthine [4] = variants of: B1; assay: FACS-Seq fitted mean relative fluorescence mCherry/BFP with ligand (log10 relative fluorescence); ligand: hypoxanthine (xanthine aptamer); ligand concentration (+) FACS-Seq: 5 mM; higher = higher reporter protein expression; conditions: HEK293T, ligand present: yes
In short: as §1

Row | Variant | FACS-Seq fitted mean (log10) (hypoxanthine [1]) | normalized RNA/DNA level with ligand (log10) (hypoxanthine [2]) | normalized RNA/DNA level without ligand (log10) (hypoxanthine [3]) | FACS-Seq fitted mean (log10) (hypoxanthine [4])
1 | AUGUGA | 0.242 ± 0.018 | 1.849 ± 0.0086 | 1.56 ± 0.1 | 0.68 ± 0.028
2 | GUGUGA | 0.33 ± 0.037 | 1.905 ± 0.0085 | 1.58 ± 0.026 | 0.67 ± 0.024
3 | GUGUGC | 0.169 ± 0.0029 | 1.801 ± 0.013 | 1.36 ± 0.089 | 0.597 ± 0.033
4 | AUGUGG | -0.193 ± 0.082 | 1.756 ± 0.0083 | 1.27 ± 0.11 | -0.0634 ± 0.1
5 | CUGUGG | 0.575 ± 0.018 | 1.91 ± 0.027 | 1.45 ± 0.089 | 0.842 ± 0.073
6 | GUGUGG | 0.0226 ± 0.011 | 1.807 ± 0.0054 | 1.27 ± 0.025 | 0.5793 ± 0.0024
7 | UUGUGG | 0.447 ± 0.013 | 2.01 ± 0.025 | 1.89 ± 0.0069 | 0.511 ± 0.067
8 | AUGUGU | -0.337 ± 0.023 | 1.86 ± 0.02 | 1.53 ± 0.059 | 0.155 ± 0.022
9 | GUGUGU | 0.3521 ± 0.0033 | 1.894 ± 0.0042 | 1.64 ± 0.023 | 0.466 ± 0.13
10 | CUGUUA | 0.263 ± 0.085 | 1.95 ± 0.057 | 1.66 ± 0.027 | 0.493 ± 0.053
11 | AUGUUG | 0.146 ± 0.039 | 1.85 ± 0.024 | 1.44 ± 0.075 | 0.386 ± 0.071
12 | GUGUUG | 0.222 ± 0.012 | 1.83 ± 0.048 | 1.34 ± 0.11 | 0.559 ± 0.033
13 | AUGUUU | 0.564 ± 0.028 | 1.95 ± 0.055 | 1.85 ± 0.03 | 0.43 ± 0.049
14 | AUUAAA | 0.84 ± 0.0057 | 1.89 ± 0.045 | 1.78 ± 0.021 | 0.732 ± 0.092
15 | CUUAAC | 0.554 ± 0.03 | 1.89 ± 0.059 | 1.82 ± 0.036 | 0.637 ± 0.05
16 | GUUAAC | 0.164 ± 0.008 | 1.95 ± 0.021 | 1.8064 ± 0.0016 | -0.269 ± 0.1
17 | UUUAAC | 0.697 ± 0.045 | 2 ± 0.04 | 1.86 ± 0.021 | 0.716 ± 0.07
18 | AUUAAG | 0.351 ± 0.019 | 1.86 ± 0.028 | 1.48 ± 0.056 | 0.65 ± 0.069
19 | AUUAAU | 0.51 ± 0.075 | 1.89 ± 0.023 | 1.774 ± 0.0011 | 0.566 ± 0.024
20 | GUUAAU | 0.528 ± 0.024 | 1.9 ± 0.02 | 1.8 ± 0.067 | 0.566 ± 0.0099
21 | UUUAAU | 0.485 ± 0.013 | 1.918 ± 0.01 | 1.856 ± 0.0057 | 0.421 ± 0.053
22 | AUUACA | 0.157 ± 0.076 | 1.91 ± 0.033 | 1.776 ± 0.0047 | 0.407 ± 0.0063
23 | CUUACC | 0.555 ± 0.022 | 1.91 ± 0.046 | 1.907 ± 0.0033 | 0.393 ± 0.022
24 | GUUACC | -0.307 ± 0.2 | 1.91 ± 0.057 | 1.882 ± 0.018 | -0.559 ± 0.021

Row | Variant | FACS-Seq fitted mean (log10) (hypoxanthine [1]) | normalized RNA/DNA level with ligand (log10) (hypoxanthine [2]) | normalized RNA/DNA level without ligand (log10) (hypoxanthine [3]) | FACS-Seq fitted mean (log10) (hypoxanthine [4])
25 | AUUACG | 0.368 ± 0.015 | 1.84 ± 0.066 | 1.397 ± 0.00039 | 0.626 ± 0.068
26 | GUUACG | 0.564 ± 0.075 | 1.88 ± 0.03 | 1.59 ± 0.027 | 0.566 ± 0.043
27 | GUUACU | 0.523 ± 0.11 | 1.946 ± 0.0064 | 1.89 ± 0.06 | 0.466 ± 0.036
28 | AUUAGA | 0.629 ± 0.042 | 1.895 ± 0.013 | 1.71 ± 0.028 | 0.69 ± 0.04
29 | GUUAGA | 0.572 ± 0.13 | 1.905 ± 0.0029 | 1.694 ± 0.0036 | 0.619 ± 0.075
30 | AUUAGC | 0.269 ± 0.031 | 1.92 ± 0.037 | 1.77 ± 0.029 | 0.487 ± 0.023
31 | UUUAGC | 0.28 ± 0.015 | 1.95 ± 0.061 | 1.88 ± 0.037 | 0.555 ± 0.04
32 | AUUAGG | 0.0666 ± 0.043 | 1.81 ± 0.045 | 1.31 ± 0.021 | 0.477 ± 0.051
33 | GUUAGG | 0.451 ± 0.026 | 1.8 ± 0.045 | 1.38 ± 0.033 | 0.648 ± 0.03
34 | UUUAGG | 0.0978 ± 0.0074 | 1.9004 ± 0.0014 | 1.83 ± 0.0068 | 0.462 ± 0.026
35 | UUUAGU | 0.632 ± 0.16 | 1.93 ± 0.043 | 1.83 ± 0.064 | 0.638 ± 0.11
36 | AUUAUA | 0.24 ± 0.022 | 1.928 ± 0.019 | 1.81 ± 0.028 | 0.402 ± 0.063
37 | CUUAUA | 0.669 ± 0.043 | 1.92 ± 0.037 | 1.792 ± 0.014 | 0.696 ± 0.063
38 | UUUAUA | -0.64 ± 0.014 | 1.93 ± 0.024 | 1.849 ± 0.0039 | -0.329 ± 0.11
39 | GUUAUG | 0.223 ± 0.011 | 1.87 ± 0.039 | 1.46 ± 0.015 | 0.509 ± 0.01
40 | AUUAUU | 0.5583 ± 0.0011 | 1.91 ± 0.0029 | 1.881 ± 0.011 | 0.668 ± 0.014
41 | UUUAUU | 0.761 ± 0.032 | 1.9334 ± 0.00045 | 1.86 ± 0.047 | 0.799 ± 0.067
42 | GUUCAA | 0.0385 ± 0.025 | 1.89 ± 0.075 | 1.79 ± 0.042 | 0.294 ± 0.0042
43 | CUUCAC | 0.798 ± 0.0035 | 1.98 ± 0.022 | 1.89 ± 0.038 | 0.7261 ± 0.0054
44 | AUUCAU | 0.124 ± 0.035 | 1.93 ± 0.049 | 1.8 ± 0.064 | 0.262 ± 0.046
45 | CUUCCC | -0.199 ± 0.041 | 1.9 ± 0.021 | 1.9406 ± 0.0018 | 0.0439 ± 0.038
46 | AUUCCG | 0.126 ± 0.023 | 1.93 ± 0.021 | 1.589 ± 0.013 | 0.296 ± 0.031
47 | AUUCCU | 0.507 ± 0.036 | 1.922 ± 0.0034 | 1.89 ± 0.064 | 0.567 ± 0.011
48 | CUUCGA | -0.0248 ± 0.11 | 2.01 ± 0.04 | 1.876 ± 0.012 | 0.346 ± 0.059

Row | Variant | FACS-Seq fitted mean (log10) (hypoxanthine [1]) | normalized RNA/DNA level with ligand (log10) (hypoxanthine [2]) | normalized RNA/DNA level without ligand (log10) (hypoxanthine [3]) | FACS-Seq fitted mean (log10) (hypoxanthine [4])
49 | AUUCGG | 0.175 ± 0.028 | 1.87 ± 0.021 | 1.46 ± 0.024 | 0.625 ± 0.014
50 | GUUCGU | 0.476 ± 0.02 | 1.98 ± 0.087 | 1.887 ± 0.01 | 0.538 ± 0.014
51 | AUUCUC | 0.8249 ± 0.0011 | 2.01 ± 0.033 | 1.96 ± 0.044 | 0.724 ± 0.063
52 | CUUGAA | 0.0914 ± 0.0068 | 1.95 ± 0.041 | 1.706 ± 0.015 | 0.182 ± 0.0048
53 | UUUGAA | 0.522 ± 0.076 | 1.9 ± 0.041 | 1.75 ± 0.036 | 0.351 ± 0.04
54 | AUUGAC | 0.697 ± 0.08 | 1.914 ± 0.01 | 1.816 ± 0.0025 | 0.672 ± 0.11
55 | AUUGAG | 0.25 ± 0.005 | 1.82 ± 0.062 | 1.37 ± 0.029 | 0.476 ± 0.0067
56 | GUUGAG | 0.255 ± 0.018 | 1.81 ± 0.019 | 1.34 ± 0.038 | 0.659 ± 0.082
57 | UUUGAG | 0.198 ± 0.18 | 1.88 ± 0.027 | 1.54 ± 0.021 | 0.502 ± 0.067
58 | AUUGAU | 0.686 ± 0.037 | 1.92 ± 0.07 | 1.73 ± 0.074 | 0.657 ± 0.014
59 | CUUGAU | -0.553 ± 0.022 | 1.94 ± 0.031 | 1.74 ± 0.011 | -0.303 ± 0.012
60 | GUUGAU | 0.224 ± 0.074 | 1.936 ± 0.015 | 1.79 ± 0.021 | 0.303 ± 0.031
61 | CUUGCA | 0.834 ± 0.021 | 2.01 ± 0.023 | 1.87 ± 0.041 | 0.882 ± 0.079
62 | GUUGCA | 0.818 ± 0.056 | 1.918 ± 0.017 | 1.81 ± 0.021 | 0.698 ± 0.011
63 | AUUGCG | -0.0459 ± 0.021 | 1.857 ± 0.015 | 1.41 ± 0.065 | 0.458 ± 0.028
64 | CUUGCU | 0.359 ± 0.037 | 2 ± 0.018 | 1.94 ± 0.097 | 0.458 ± 0.056
65 | AUUGGA | 0.196 ± 0.12 | 1.944 ± 0.0073 | 1.647 ± 0.013 | 0.374 ± 0.042
66 | CUUGGA | 0.708 ± 0.039 | 1.95 ± 0.032 | 1.85 ± 0.02 | 0.705 ± 0.086
67 | AUUGGG | 0.0996 ± 0.0053 | 1.87 ± 0.085 | 1.36 ± 0.03 | 0.592 ± 0.018
68 | GUUGGG | 0.375 ± 0.11 | 1.89 ± 0.025 | 1.52 ± 0.029 | 0.635 ± 0.028
69 | AUUGGU | 0.357 ± 0.04 | 1.89 ± 0.048 | 1.66 ± 0.084 | 0.601 ± 0.029
70 | GUUGUA | 0.455 ± 0.0078 | 1.9 ± 0.025 | 1.84 ± 0.032 | 0.632 ± 0.012
71 | AUUGUG | 0.0887 ± 0.00064 | 1.8 ± 0.023 | 1.39 ± 0.034 | 0.469 ± 0.1
72 | GUUGUG | 0.225 ± 0.066 | 1.83 ± 0.042 | 1.39 ± 0.028 | 0.406 ± 0.14
